Data taken from patent publication US20160355591A1.

Columns and labels:
[1] = target: HLA-DR (human leukocyte antigen-DR) on human lymphoma and leukemia cells and human lymphocytes (human); experiment: indirect FACS, Raji cells, FITC-GAH Fc 2nd Ab; none 6.8; control antibody
[2] = target: HLA-DR (human leukocyte antigen-DR) on human lymphoma and leukemia cells and human lymphocytes (human); experiment: indirect flow cytometry, RL cells, FITC-GAH Fc 2nd Ab; none 2.4; negative control antibody
[3] = target: HLA-DR (human leukocyte antigen-DR) on human lymphoma and leukemia cells and human lymphocytes (human); experiment: indirect FACS, WSU-FSCCL cells, FITC-GAH Fc 2nd Ab; none 2.6; control antibody
[4] = target: HLA-DR (human leukocyte antigen-DR) on human lymphoma and leukemia cells and human lymphocytes (human); experiment: indirect flow cytometry, Namalwa cells, FITC-GAH 2nd Ab; none 2.52; control antibody (anti-CEA)
[5] = target: HLA-DR (human leukocyte antigen-DR) on human lymphoma and leukemia cells and human lymphocytes (human); experiment: indirect FACS, Daudi cells, FITC-GAH Fc 2nd Ab; none 3.1; control antibody
[6] = target: HLA-DR (human leukocyte antigen-DR) on human lymphoma and leukemia cells and human lymphocytes (human); experiment: indirect FACS, Namalwa cells, FITC-GAH Fc 2nd Ab; none 2.5; control antibody
[7] = target: HLA-DR (L243 antigen) on canine lymphocytes and canine lymphoma cells (dog); experiment: flow cytometry, dog lymphoma aspirate; none 4.48; control antibody
[8] = target: HLA-DR (human leukocyte antigen-DR) on human lymphoma and leukemia cells and human lymphocytes (human); experiment: indirect flow cytometry, WSU-FSCCL cells, FITC-GAH Fc 2nd Ab; none 2.7; negative control antibody
[9] = target: HLA-DR (human leukocyte antigen-DR) on human lymphoma and leukemia cells and human lymphocytes (human); experiment: indirect flow cytometry, Namalwa cells, FITC-GAH Fc 2nd Ab; none 2.6; negative control antibody
[10] = target: HLA-DR (L243 antigen) on canine lymphocytes and canine lymphoma cells (dog); experiment: flow cytometry, canine lymphoma aspirate 150836; none 3.2; control antibody
[11] = target: HLA-DR (L243 antigen) on canine lymphocytes and canine lymphoma cells (dog); experiment: flow cytometry, dog lymphoma aspirate; none 3.24; control antibody
[12] = target: HLA-DR (human leukocyte antigen-DR) on human lymphoma and leukemia cells and human lymphocytes (human); experiment: indirect flow cytometry, Raji cells, FITC-GAH Fc 2nd Ab; none 6.9; negative control antibody
[13] = target: HLA-DR (human leukocyte antigen-DR) on human lymphoma and leukemia cells and human lymphocytes (human); experiment: indirect flow cytometry, SU-DHL-6 cells, FITC-GAH Fc 2nd Ab; none 4.6; negative control antibody
[14] = target: HLA-DR (human leukocyte antigen-DR) on human lymphoma and leukemia cells and human lymphocytes (human); experiment: indirect FACS, SU-DHL-6 cells, FITC-GAH Fc 2nd Ab; none 4.6; control antibody
[15] = target: HLA-DR (human leukocyte antigen-DR) on human lymphoma and leukemia cells and human lymphocytes (human); experiment: indirect flow cytometry, Daudi cells, FITC-GAH Fc 2nd Ab; none 3.2; negative control antibody
[16] = target: HLA-DR (human leukocyte antigen-DR) on human lymphoma and leukemia cells and human lymphocytes (human); experiment: indirect flow cytometry, Ramos cells, FITC-GAH Fc 2nd Ab; none 3.1; negative control antibody
[17] = target: HLA-DR (human leukocyte antigen-DR) on human lymphoma and leukemia cells and human lymphocytes (human); experiment: indirect FACS, Ramos cells, FITC-GAH Fc 2nd Ab; none 3.1; control antibody
[18] = target: HLA-DR (L243 antigen) on canine lymphocytes and canine lymphoma cells (dog); experiment: flow cytometry, canine lymphoma aspirate 150836; none 4.5; control antibody

B1: hMN-14 (labetuzumab, humanized anti-carcinoembryonic antigen IgG1) (antibody, INN chains, looked up, V domains shown)
VH: EVQLVESGGGVVQPGRSLRLSCSASGFDFTTYWMSWVRQAPGKGLEWIGEIHPDSSTINYAPSLKDRFTISRDNAKNTLFLQMDSLRPEDTGVYFCASLYFGFPWFAYWGQGTPVTVSS
VL: DIQLTQSPSSLSASVGDRVTITCKASQDVGTSVAWYQQKPGKAPKLLIYWTSTRHTGVPSRFSGSGSGTDFTFTISSLQPEDIATYYCQQYSLYRSFGQGTKVEIKR
geometric mean fluorescence [1]: 6.96 | geometric mean fluorescence [2]: 2.8 | geometric mean fluorescence [3]: 2.66 | geometric mean fluorescence [4]: 2.49 | geometric mean fluorescence [5]: 3.16 | geometric mean fluorescence [6]: 2.36 | % Positive [7]: 4.63% | geometric mean fluorescence [8]: 2.7 | geometric mean fluorescence [9]: 2.4 | mean FL [10]: 3.2 | mean FL [11]: 3.24 | geometric mean fluorescence [12]: 7 | geometric mean fluorescence [13]: 4.9 | geometric mean fluorescence [14]: 4.94 | geometric mean fluorescence [15]: 3.2 | geometric mean fluorescence [16]: 3.1 | geometric mean fluorescence [17]: 3.13 | % Positive [18]: 4.6%
